Tests used:
Assay in all cases: cell-based or functional assay
[1] = biological target: rice thioredoxin with S-tag (recombinant, expressed in E. coli from pNOV4113) (rice)
[2] = biological target: soybean thioredoxin as labelled in the 4th table (with or without S-tag not told) (soybean)
[3] = biological target: wheat thioredoxin with S-tag (recombinant, expressed in E. coli from pNOV4114) (wheat (T. aestivium [sic]))

E. coli thioredoxin reductase (T-7915, Sigma, St. Louis, Mo.), sequence (P0A9P4 2-321 limits assumed): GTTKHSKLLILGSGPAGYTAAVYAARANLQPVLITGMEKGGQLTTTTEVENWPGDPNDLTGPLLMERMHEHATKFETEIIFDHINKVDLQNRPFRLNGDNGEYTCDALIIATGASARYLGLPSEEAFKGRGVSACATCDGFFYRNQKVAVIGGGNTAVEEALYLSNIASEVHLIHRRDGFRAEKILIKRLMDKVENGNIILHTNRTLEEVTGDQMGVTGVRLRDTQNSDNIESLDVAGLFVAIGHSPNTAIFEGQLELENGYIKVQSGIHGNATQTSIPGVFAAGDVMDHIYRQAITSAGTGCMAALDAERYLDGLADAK

change in A412 over 4 min, NADPH thioredoxin reductase DTNB assay; 30 ul (about 15 ug) rice thioredoxin, 2.3 ug E. coli reductase [1] | change in A412 over 4 min, NADPH thioredoxin reductase DTNB assay; 30 ul (about 6 ug) soybean thioredoxin, 2.3 ug E. coli reductase [2] | change in A412 over 4 min, NADPH thioredoxin reductase DTNB assay; 30 ul (about 12 ug) soybean thioredoxin, 2.3 ug E. coli reductase [2] | change in A412 over 4 min, NADPH thioredoxin reductase DTNB assay; 30 ul (about 0.6 ug) wheat thioredoxin, 2.3 ug E. coli reductase [3] | change in A412 over 4 min, NADPH thioredoxin reductase DTNB assay; 30 ul (about 15 ug) rice thioredoxin, 1.5 ul (about 0.5 ug) Arabidopsis reductase [1] | change in A412 over 4 min, NADPH thioredoxin reductase DTNB assay; 30 ul (about 12 ug) soybean thioredoxin, 1.5 ul (about 0.5 ug) Arabidopsis reductase [2] | change in A412 over 4 min, NADPH thioredoxin reductase DTNB assay; 30 ul (about 0.6 ug) wheat thioredoxin, 1.5 ul (0.5 ug) Arabidopsis reductase [3] | change in A412 over 4 min, NADPH thioredoxin reductase DTNB assay; 30 ul (about 1.2 ug) wheat thioredoxin, 1.5 ul (0.5 ug) Arabidopsis reductase [3] | Substance
0.3 A412 | 0.2 A412 | 0.333 A412 | 0.3 A412 | – | – | – | – | E. coli thioredoxin reductase (T-7915, Sigma, St. Louis, Mo.) (from UniProt P0A9P4 2-321) (enzyme)
– | – | – | – | 0.66 A412 | 0.42 A412 | 0.08 A412 | 0.08 A412 | Arabidopsis NADPH thioredoxin reductase without S-tag (recombinant, expressed in E. coli from pNOV4115) (from UniProt Q39243 43-375) (enzyme)

Source: US20030145347A1
